From patent US20230203117A1 (published 2023) come the findings set out here.

The target of assay [1] is G3. Description: SPR (Biacore); without IL-10Rα.
Another assay deals with G3 (+Rα). Description: SPR (Biacore); pre-bound to IL-10Rα. Background: Surface plasmon resonance follows binding to a sensor surface in real time, without labels.
The target of another assay is A11 (+Rα) (UniProt Q13651 22-235). In words: SPR (Biacore); pre-bound to IL-10Rα.
For a further assay, the target named is B11 (+Rα) (UniProt Q13651 22-235). In words: SPR (Biacore); pre-bound to IL-10Rα.
The target in another assay is R5A11 (+Rα) (UniProt Q13651 22-235). In words: SPR (Biacore); pre-bound to IL-10Rα.
Another assay deals with R5A11. In words: SPR (Biacore); monomer, without IL-10Rα.
For the next assay, the target named is B11. In words: SPR (Biacore); monomer, without IL-10Rα.
Assay [2] deals with G3. Description: SPR (Biacore); monomer, without IL-10Rα.
A further assay deals with A11. Description: SPR (Biacore); monomer, without IL-10Rα.

B1: IL-10Rβ (receptor)
chain: MVPPPENVRMNSVNFKNILQWESPAFAKGNLTFTAQYLSYRIFQDKCMNTTLTECDFSSLSKYGDHTLRVRAEFADEHSDWVNITFCPVDDTIIGPPGMQVEVLADSLHMRFLAPKIENEYETWTMKNVYNSWTYNVQYWKNGTDEKFQITPQYDFEVLRNLEPWTTYCVQVRGFLPDRNKAGEWSEPVCEQTTHDETVPSLNDIFEAQKIEWHWHHHHHH
modifications: biotinylated with BirA ligase on the biotin acceptor peptide
Take B1: the dissociation constant Kd with G3 [1] turned out to be 2400 nM; with G3 (+Rα) it was 8 nM; with A11 (+Rα), 23 nM; in the assay with B11 (+Rα), 65 nM; in the assay with R5A11 (+Rα), 100 nM; in the assay with R5A11 it was 8900 nM. Besides, the results for the Kd in the assay with B11, with G3 [2] and in the assay with A11 were 9400 nM, 2400 nM and 2400 nM, respectively.

As usually defined, the Kd is a measure of binding affinity in units of concentration. A low value points to higher affinity.
